This note sets out measurements from patent US7658917 (PRAECIS PHARMACEUTICALS, dated 2010).

To fix the notation:
B1: CA-FFA-oh (peptide)
peptide: Cholyl-Phe-Phe-Ala-OH
SMILES: C[C@H](NC(=O)[C@H](Cc1ccccc1)NC(=O)[C@H](Cc1ccccc1)NC(=O)CC[C@@H](C)[C@H]1CC[C@H]2[C@@H]3[C@H](O)C[C@@H]4C[C@H](O)CC[C@]4(C)[C@H]3C[C@H](O)[C@]12C)C(=O)O
B2: CA-FFVL-oh (peptide)
peptide: Cholyl-FFVL-OH
SMILES: CC(C)C[C@H](NC(=O)[C@@H](NC(=O)[C@H](Cc1ccccc1)NC(=O)[C@H](Cc1ccccc1)NC(=O)CC[C@@H](C)[C@H]1CC[C@H]2[C@@H]3[C@H](O)C[C@@H]4C[C@H](O)CC[C@]4(C)[C@H]3C[C@H](O)[C@]12C)C(C)C)C(=O)O
B3: CA-LVFAA-oh (peptide)
peptide: Cholyl-LVFAA-OH
SMILES: CC(C)C[C@H](NC(=O)CC[C@@H](C)[C@H]1CC[C@H]2[C@@H]3[C@H](O)C[C@@H]4C[C@H](O)CC[C@]4(C)[C@H]3C[C@H](O)[C@]12C)C(=O)N[C@H](C(=O)N[C@@H](Cc1ccccc1)C(=O)N[C@@H](C)C(=O)N[C@@H](C)C(=O)O)C(C)C
B4: CA-LVFFK-oh (peptide)
peptide: Cholyl-LVFFK-OH
SMILES: CC(C)C[C@H](NC(=O)CC[C@@H](C)[C@H]1CC[C@H]2[C@@H]3[C@H](O)C[C@@H]4C[C@H](O)CC[C@]4(C)[C@H]3C[C@H](O)[C@]12C)C(=O)N[C@H](C(=O)N[C@@H](Cc1ccccc1)C(=O)N[C@@H](Cc1ccccc1)C(=O)N[C@@H](CCCCN)C(=O)O)C(C)C
B5: h-(Aic)-LVFFA-oh (peptide)
peptide: H-[Aic′]LVFFA-OH
SMILES: CC(C)C[C@H](NC(=O)CC[C@@H](C)[C@H]1CC[C@H]2[C@@H]3[C@H](O)C[C@@H]4C[C@@H](OCCN)CC[C@]4(C)[C@H]3C[C@H](O)[C@]12C)C(=O)N[C@H](C(=O)N[C@@H](Cc1ccccc1)C(=O)N[C@@H](Cc1ccccc1)C(=O)N[C@@H](C)C(=O)O)C(C)C
B6: CA-LVF-oh (peptide)
peptide: Cholyl-Leu-Val-Phe-OH
SMILES: CC(C)C[C@H](NC(=O)CC[C@@H](C)[C@H]1CC[C@H]2[C@@H]3[C@H](O)C[C@@H]4C[C@H](O)CC[C@]4(C)[C@H]3C[C@H](O)[C@]12C)C(=O)N[C@H](C(=O)N[C@@H](Cc1ccccc1)C(=O)O)C(C)C
B7: CA-VFF-oh (peptide)
peptide: Cholyl-Val-Phe-Phe-OH
SMILES: CC(C)[C@H](NC(=O)CC[C@@H](C)[C@H]1CC[C@H]2[C@@H]3[C@H](O)C[C@@H]4C[C@H](O)CC[C@]4(C)[C@H]3C[C@H](O)[C@]12C)C(=O)N[C@@H](Cc1ccccc1)C(=O)N[C@@H](Cc1ccccc1)C(=O)O
B8: CA-GFF-oh (peptide)
peptide: Cholyl-Gly-Phe-Phe-OH
SMILES: C[C@H](CCC(=O)NCC(=O)N[C@@H](Cc1ccccc1)C(=O)N[C@@H](Cc1ccccc1)C(=O)O)[C@H]1CC[C@H]2[C@@H]3[C@H](O)C[C@@H]4C[C@H](O)CC[C@]4(C)[C@H]3C[C@H](O)[C@]12C
B9: h-DDII(N-Me-Leu)VEH(Adp)-LKLVFF-oh (peptide)
peptide: H-DDII[NMeL]VEH[Adp]LKLVFF-OH
SMILES: CC[C@H](C)[C@H](NC(=O)[C@H](CC(=O)O)NC(=O)[C@@H](N)CC(=O)O)C(=O)N[C@H](C(=O)N(C)[C@@H](CC(C)C)C(=O)N[C@H](C(=O)N[C@@H](CCC(=O)O)C(=O)N[C@@H](Cc1c[nH]cn1)C(=O)NCCc1cccc2c1oc1c(CCC(=O)N[C@@H](CC(C)C)C(=O)N[C@@H](CCCCN)C(=O)N[C@@H](CC(C)C)C(=O)N[C@H](C(=O)N[C@@H](Cc3ccccc3)C(=O)N[C@@H](Cc3ccccc3)C(=O)O)C(C)C)cccc12)C(C)C)[C@@H](C)CC
B10: CA-FFVLA-oh (peptide)
peptide: Cholyl-FFVLA-OH
SMILES: CC(C)C[C@H](NC(=O)[C@@H](NC(=O)[C@H](Cc1ccccc1)NC(=O)[C@H](Cc1ccccc1)NC(=O)CC[C@@H](C)[C@H]1CC[C@H]2[C@@H]3[C@H](O)C[C@@H]4C[C@H](O)CC[C@]4(C)[C@H]3C[C@H](O)[C@]12C)C(C)C)C(=O)N[C@@H](C)C(=O)O
B11: CA-FFV-oh (peptide)
peptide: Cholyl-Phe-Phe-Val-OH
SMILES: CC(C)[C@H](NC(=O)[C@H](Cc1ccccc1)NC(=O)[C@H](Cc1ccccc1)NC(=O)CC[C@@H](C)[C@H]1CC[C@H]2[C@@H]3[C@H](O)C[C@@H]4C[C@H](O)CC[C@]4(C)[C@H]3C[C@H](O)[C@]12C)C(=O)O
B12: CA-AVAFA-oh (peptide)
peptide: Cholyl-AVAFA-OH
SMILES: CC(C)[C@H](NC(=O)[C@H](C)NC(=O)CC[C@@H](C)[C@H]1CC[C@H]2[C@@H]3[C@H](O)C[C@@H]4C[C@H](O)CC[C@]4(C)[C@H]3C[C@H](O)[C@]12C)C(=O)N[C@@H](C)C(=O)N[C@@H](Cc1ccccc1)C(=O)N[C@@H](C)C(=O)O
B13: h-DDIII(N-Me-Val)DLL(Adp)-HQKLVFF-oh (peptide)
peptide: H-DDIII[NMeV]DLL[Adp]HQKLVFF-OH
SMILES: CC[C@H](C)[C@H](NC(=O)[C@H](CC(=O)O)NC(=O)[C@@H](N)CC(=O)O)C(=O)N[C@H](C(=O)N[C@H](C(=O)N(C)[C@H](C(=O)N[C@@H](CC(=O)O)C(=O)N[C@@H](CC(C)C)C(=O)N[C@@H](CC(C)C)C(=O)NCCc1cccc2c1oc1c(CCC(=O)N[C@@H](Cc3c[nH]cn3)C(=O)N[C@@H](CCC(N)=O)C(=O)N[C@@H](CCCCN)C(=O)N[C@@H](CC(C)C)C(=O)N[C@H](C(=O)N[C@@H](Cc3ccccc3)C(=O)N[C@@H](Cc3ccccc3)C(=O)O)C(C)C)cccc12)C(C)C)[C@@H](C)CC)[C@@H](C)CC

Numbered stars: 1 amine (or outer) side, 2 acyl side, 3 side chain; on linkers, the order of the positions; unused ones are H or OH. Square brackets hold non-standard residues; d marks the D form. Primed or numbered codes have the meaning given here. Ends that are not written are not given here. * marks the point of attachment. Aic′ = 3-(O-aminoethyl-iso)-cholyl, C[C@H](CCC(=O)*)[C@H]1CC[C@H]2[C@@H]3[C@H](O)C[C@@H]4C[C@@H](OCCN)CC[C@]4(C)[C@H]3C[C@H](O)[C@]12C; Cholyl = C[C@H](CCC(=O)*)[C@H]1CC[C@H]2[C@@H]3[C@H](O)C[C@@H]4C[C@H](O)CC[C@]4(C)[C@H]3C[C@H](O)[C@]12C; Deoxycholoyl = C[C@H](CCC(=O)*)[C@H]1CC[C@H]2[C@@H]3CC[C@@H]4C[C@H](O)CC[C@]4(C)[C@H]3C[C@H](O)[C@]12C; Lithocholoyl = C[C@H](CCC(=O)*)[C@H]1CC[C@H]2[C@@H]3CC[C@@H]4C[C@H](O)CC[C@]4(C)[C@H]3CC[C@]12C; Adp = aminoethyldibenzofuranylpropanoic acid, O=C(CCc1cccc2c1oc1c(CCN[*:1])cccc12)[*:2]; Tyr(3-I) = N[C@@H](Cc1ccc(O)c(I)c1)C(=O)O; Aic″ = 3-(O-aminoethyl-iso)-cholyl; NMeL = CN[C@@H](CC(C)C)C(=O)O; NMeV = CN[C@H](C(=O)O)C(C)C; Boc = CC(C)(C)OC(=O)*

In one test the target is natural β-amyloid peptide β-AP1-40 (human). As to the kind of experiment: cell-based or functional assay.
natural β-amyloid peptide β-AP1-40 (human), sequence (peptide, as listed by the source): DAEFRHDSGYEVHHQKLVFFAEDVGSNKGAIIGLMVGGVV
For the molecule Deoxycholoyl-LVFFA-OH [DeoxyCA-LVFFA-oh], the “% Iext'n; seeded extension assay; 25 mole %” value (from here on “% Iext'n”) was 82%, the “% Inucl'n; nucleation assay; 100 mole %” value is -114% and the “ΔLag; nucleation assay; 100 mole %” value was determined as 3 ratio.
Take Cholyl-LVFFA-OMe [CA-LVFFA-o-methyl]: the “% Iext'n” value was 0%.
As to Cholyl-[dL][dV][dF][dF][dA]-OH [CA-LVFFA-oh (all D amino acids)], the “% Inucl'n; nucleation assay; 100 mole %” value stood at 27% and the “ΔLag; nucleation assay; 100 mole %” value was found to be 2.8 ratio.
In the case of H-LVFFA-NH2 [h-LVFFA-nh2], the “% Iext'n” value is 70%, the “% Inucl'n; nucleation assay; 100 mole %” value turned out to be 11% and the “ΔLag; nucleation assay; 100 mole %” value stood at 1.3 ratio.
For Boc-LVFFA-OH [t-Boc-LVFFA-oh], the “% Inucl'n; nucleation assay; 100 mole %” value was -5% and the “ΔLag; nucleation assay; 100 mole %” value was determined as 3 ratio.
Turning to B1, the “% Iext'n” value was found to be 6%, the “% Inucl'n; nucleation assay; 100 mole %” value came to 51% and the “ΔLag; nucleation assay; 100 mole %” value was 1 ratio.
For the molecule Cholyl-LVF[Tyr(3-I)]A-OH [CA-LVF(IY)A-oh], the “% Inucl'n; nucleation assay; 100 mole %” value came to 95% and the “ΔLag; nucleation assay; 100 mole %” value was above 5 ratio.
B2: the “% Iext'n” value was 75%, the “% Inucl'n; nucleation assay; 100 mole %” value was 33% and the “ΔLag; nucleation assay; 100 mole %” value was 4.1 ratio.
As for B3, the “% Inucl'n; nucleation assay; 100 mole %” value was 40% and the “ΔLag; nucleation assay; 100 mole %” value was determined as 1.6 ratio.
For the molecule B4, the “% Iext'n” value came out at 85%, the “% Inucl'n; nucleation assay; 33 mole %” value was 100% and the “ΔLag; nucleation assay; 33 mole %” value is above 5 ratio.
As for Lithocholoyl-LVFFA-OH [LithoCA-LVFFA-oh], the “% Iext'n” value stood at 0%, the “% Inucl'n; nucleation assay; 100 mole %” value was -229% and the “ΔLag; nucleation assay; 100 mole %” value stood at 2.8 ratio.
With B5, the “% Iext'n” value came out at 87%, the “% Inucl'n; nucleation assay; 33 mole %” value was found to be 100% and the “ΔLag; nucleation assay; 33 mole %” value was above 5 ratio.
Regarding B6, the “% Iext'n” value turned out to be 0%, the “% Inucl'n; nucleation assay; 100 mole %” value was found to be 1% and the “ΔLag; nucleation assay; 100 mole %” value was 1.3 ratio.
On the same counts, the results for B7 are 0%, 55% and 1.8 ratio.
H-LVFFA[Aic″]-OH [h-LVFFA-(Aic)-oh]: the “% Iext'n” value turned out to be 3%, the “% Inucl'n; nucleation assay; 100 mole %” value came to 46% and the “ΔLag; nucleation assay; 100 mole %” value was 3.5 ratio.
Take B8: the “% Inucl'n; nucleation assay; 100 mole %” value worked out at 0% and the “ΔLag; nucleation assay; 100 mole %” value worked out at 1 ratio.
Consider B9, for which the “% Iext'n” value came out at 7%, the “% Inucl'n; nucleation assay; 100 mole %” value was -29% and the “ΔLag; nucleation assay; 100 mole %” value is 1.8 ratio.
For B10, in that order: 89%, 100% and above 5 ratio.
On the same counts, the results for B11 are 7%, -33% and 2.2 ratio.
For the molecule B12, the “% Inucl'n; nucleation assay; 100 mole %” value was -15% and the “ΔLag; nucleation assay; 100 mole %” value stood at 1 ratio.
Turning to Cholyl-LV[Tyr(3-I)]FA-OH [CA-LV(IY)FA-oh], the “% Iext'n” value is 71%, the “% Inucl'n; nucleation assay; 100 mole %” value came to 100% and the “ΔLag; nucleation assay; 100 mole %” value is above 5 ratio.
For the molecule B13, the “% Iext'n” value amounted to 0%, the “% Inucl'n; nucleation assay; 100 mole %” value was -75% and the “ΔLag; nucleation assay; 100 mole %” value was 1.4 ratio.

The target is the same in another test. The test is described as follows: cell-based or functional assay. The source holds these as a separate data set.
Cholyl-EVHHQKLVFFAEDVG [cholyl-Aβ11-25]: the “% Inhibition of Plateau; nucleation assay; 100 mole %” value is around 0% and the “Fold Increase in Lag Time; nucleation assay; 100 mole %” value was 1.5 fold.
On the same counts, the results for Cholyl-DAEFRHDSGYEVHHQ [cholyl-Aβ1-15] are 100% and above 4.5 fold.
